Experimental data as given in paper PMC9067375, “Biochemical and crystallization analysis of the CENP-SX–DNA complex” (Acta Crystallographica. Section F, Structural Biology …, 2022).

Molecular target: T1, CENP-S (MHF1), chicken, full-length (Gallus gallus)
T1 construct: CENP-S (MHF1), Gallus gallus, from cDNA; called full-length CENP-S; source: E. coli One Shot BL21(DE3) pLysS RARE2; prepared according to previous reports
T1 chain: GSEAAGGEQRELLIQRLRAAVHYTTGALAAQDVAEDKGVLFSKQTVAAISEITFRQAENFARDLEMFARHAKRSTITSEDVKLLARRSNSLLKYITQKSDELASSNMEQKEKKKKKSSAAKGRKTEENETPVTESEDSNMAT
Experiment: SDS-PAGE of the contents of crystals; crystals grown from the FANCM–CENP-SX pentamer (50 µM) with dsDNA in about 30% 1,4-dioxane, 293 K; crystals, solution and film analysed by 15% SDS–PAGE, Coomassie Brilliant Blue
Conditions: both partners purified

B1: CENP-X (MHF2), chicken (natural protein, Gallus gallus)
chain: GYEEREGGFRKETVERLLRLHFRDGRTRVNGDALLLMAELLKVFVREAAARAARQAQAEDLEKVDIEHVEKVLPQLLLDFV
notes: CENP-X (MHF2), Gallus gallus, from cDNA; source: E. coli One Shot BL21(DE3) pLysS RARE2; prepared according to previous reports
binding result: binds
